Experimental data reported in paper PMC8809517, “Cofactor-independent RNA editing by a synthetic S-type PPR protein”.

T1: GFP-9S library array, motif 4 ND N98A;D124R (synthetic construct, N98A;D124R)
T1 chain: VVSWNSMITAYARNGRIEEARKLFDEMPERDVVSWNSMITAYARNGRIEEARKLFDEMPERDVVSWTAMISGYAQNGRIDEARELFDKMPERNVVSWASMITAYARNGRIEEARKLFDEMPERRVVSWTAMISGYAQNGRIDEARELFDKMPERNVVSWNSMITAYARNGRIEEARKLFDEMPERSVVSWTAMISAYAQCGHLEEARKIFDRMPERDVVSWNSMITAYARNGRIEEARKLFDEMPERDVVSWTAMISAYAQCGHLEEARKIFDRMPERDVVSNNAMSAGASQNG

T2: GFP-9S library array, motif 4 ND D124G (synthetic construct, D124G)
T2 chain: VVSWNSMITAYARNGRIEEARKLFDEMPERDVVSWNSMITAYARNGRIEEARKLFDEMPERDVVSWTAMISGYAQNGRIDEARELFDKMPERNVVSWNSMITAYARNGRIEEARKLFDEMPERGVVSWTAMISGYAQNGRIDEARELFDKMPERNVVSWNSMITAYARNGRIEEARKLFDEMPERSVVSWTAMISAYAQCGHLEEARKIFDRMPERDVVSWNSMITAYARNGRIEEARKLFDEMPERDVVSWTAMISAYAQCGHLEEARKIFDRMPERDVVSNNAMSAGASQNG

T3: GFP-9S library array, motif 4 ND N98W;D124V (synthetic construct, N98W;D124V)
T3 chain: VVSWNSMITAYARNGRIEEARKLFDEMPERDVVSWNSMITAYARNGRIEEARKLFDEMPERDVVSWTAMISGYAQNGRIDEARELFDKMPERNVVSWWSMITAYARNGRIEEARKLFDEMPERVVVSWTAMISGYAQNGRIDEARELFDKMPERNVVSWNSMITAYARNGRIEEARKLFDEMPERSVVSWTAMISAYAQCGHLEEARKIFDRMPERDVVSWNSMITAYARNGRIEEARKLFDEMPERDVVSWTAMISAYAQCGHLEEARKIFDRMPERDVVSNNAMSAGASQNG

T4: GFP-9S library array, motif 4 ND N98M;D124H (synthetic construct, N98M;D124H)
T4 chain: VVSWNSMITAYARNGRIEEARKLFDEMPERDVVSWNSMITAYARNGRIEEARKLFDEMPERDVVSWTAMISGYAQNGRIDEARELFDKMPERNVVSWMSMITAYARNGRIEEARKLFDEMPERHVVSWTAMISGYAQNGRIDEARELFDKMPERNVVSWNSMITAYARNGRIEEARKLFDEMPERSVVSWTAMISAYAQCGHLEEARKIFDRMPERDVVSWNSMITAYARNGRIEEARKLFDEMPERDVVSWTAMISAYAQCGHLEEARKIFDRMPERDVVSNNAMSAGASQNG

T5: GFP-9S library array, motif 4 ND N98P;D124R (synthetic construct, N98P;D124R)
T5 chain: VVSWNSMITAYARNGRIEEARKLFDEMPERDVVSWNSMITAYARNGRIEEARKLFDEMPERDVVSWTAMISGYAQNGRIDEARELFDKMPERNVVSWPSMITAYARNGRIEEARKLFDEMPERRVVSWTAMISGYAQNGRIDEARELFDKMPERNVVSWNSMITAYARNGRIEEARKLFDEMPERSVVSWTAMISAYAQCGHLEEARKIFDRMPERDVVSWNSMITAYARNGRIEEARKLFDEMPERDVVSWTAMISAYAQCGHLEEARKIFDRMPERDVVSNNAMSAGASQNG

B1: Cy5-rpoA-G (ssRNA)
RNA: AUUAGACGUGA
B2: Cy5-rpoA (ssRNA)
RNA: AUUACACGUGA
B3: IR-rpoA-U (ssRNA)
RNA: AUUAUACGUGA
B4: IR-rpoA-A (ssRNA)
RNA: AUUAAACGUGA

Tests used:
Test in all cases: high-throughput RNA pulldown from lysate on Ni-NTA beads; HRP: 50 mM Tris pH 8, 150 mM NaCl, 1 mM beta-mercaptoethanol, 50 ug/ml BSA, 3 ug/ml yeast RNA, 0.5% heparin; ITC and FP: Tris pH 8, 200 mM KCl, 5% glycerol; MST: 50 mM Tris pH 8, 200 mM NaCl, 1 mM DTT, BSA, heparin, 0.05% Tween 20
Settings in all cases: tags: N-terminal His-eGFP
[1] = target: T1, GFP-9S library array, motif 4 ND …
[2] = target: T2, GFP-9S library array, motif 4 ND D124G
[3] = target: T3, GFP-9S library array, motif 4 ND …
[4] = target: T4, GFP-9S library array, motif 4 ND …
[5] = target: T5, GFP-9S library array, motif 4 ND …

Binder	Kd ([1]; label: 5' Cy5)	Kd ([2]; label: 5' Cy5)	Kd ([3]; label: 5' Cy5)	Kd ([4]; label: 5' Cy5)	Kd ([5]; label: 5' Cy5)	Kd ([1]; label: 5' IRDye 800CW)	Kd ([2]; label: 5' IRDye 800CW)	Kd ([3]; label: 5' IRDye 800CW)	Kd ([4]; label: 5' IRDye 800CW)	Kd ([5]; label: 5' IRDye 800CW)
B1	166 nM	445 nM	50.8 nM	257 nM	166 nM					
B2	178 nM	30.7 nM	41.1 nM	242 nM	151 nM					
B3						160 nM	30.7 nM	100 nM	412 nM	245 nM
B4						254 nM	136 nM	95.6 nM	574 nM	329 nM
